For one assay, the target named is T1, mouse serum albumin (mouse, UniProt P07724 25-608).
T1 construct: also called MSA; mouse albumin
Put plainly: BIACORE, mouse albumin immobilised on CM5 chip. A general note: In SPR one partner is held on a chip, and binding of the other changes the refractive index at the surface.

In the next assay the target is rabbit serum albumin (rabbit, UniProt P49065 25-608). Kind of assay: Blot: phage displaying the nanobody on plasma (1/10) separated by SDS-PAGE and blotted on nitrocellulose, anti-M13-HRP [panel MSA 24].
rabbit serum albumin, sequence (P49065 25-608 limits assumed): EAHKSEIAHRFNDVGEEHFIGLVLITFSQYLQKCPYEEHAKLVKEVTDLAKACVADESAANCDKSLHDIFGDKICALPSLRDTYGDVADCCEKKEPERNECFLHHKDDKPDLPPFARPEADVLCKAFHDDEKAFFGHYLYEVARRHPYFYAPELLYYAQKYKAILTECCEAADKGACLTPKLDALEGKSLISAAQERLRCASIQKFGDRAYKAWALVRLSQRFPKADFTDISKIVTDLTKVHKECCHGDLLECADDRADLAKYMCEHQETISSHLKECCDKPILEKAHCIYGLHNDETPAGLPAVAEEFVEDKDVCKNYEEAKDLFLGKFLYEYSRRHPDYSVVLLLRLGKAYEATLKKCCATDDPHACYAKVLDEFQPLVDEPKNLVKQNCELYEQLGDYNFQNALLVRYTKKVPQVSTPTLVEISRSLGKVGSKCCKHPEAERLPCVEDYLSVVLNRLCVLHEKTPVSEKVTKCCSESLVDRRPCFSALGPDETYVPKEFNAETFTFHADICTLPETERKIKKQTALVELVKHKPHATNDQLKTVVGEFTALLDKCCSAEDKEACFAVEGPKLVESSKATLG

By Kd is commonly meant the concentration at which binding is half-saturated. The term koff denotes the rate constant with which the complex falls apart. A low value points to slow dissociation. Broadly, the kon is the second-order rate constant of association. Read a high kon as faster complex formation.

T1 sequence (P07724 25-608 limits assumed): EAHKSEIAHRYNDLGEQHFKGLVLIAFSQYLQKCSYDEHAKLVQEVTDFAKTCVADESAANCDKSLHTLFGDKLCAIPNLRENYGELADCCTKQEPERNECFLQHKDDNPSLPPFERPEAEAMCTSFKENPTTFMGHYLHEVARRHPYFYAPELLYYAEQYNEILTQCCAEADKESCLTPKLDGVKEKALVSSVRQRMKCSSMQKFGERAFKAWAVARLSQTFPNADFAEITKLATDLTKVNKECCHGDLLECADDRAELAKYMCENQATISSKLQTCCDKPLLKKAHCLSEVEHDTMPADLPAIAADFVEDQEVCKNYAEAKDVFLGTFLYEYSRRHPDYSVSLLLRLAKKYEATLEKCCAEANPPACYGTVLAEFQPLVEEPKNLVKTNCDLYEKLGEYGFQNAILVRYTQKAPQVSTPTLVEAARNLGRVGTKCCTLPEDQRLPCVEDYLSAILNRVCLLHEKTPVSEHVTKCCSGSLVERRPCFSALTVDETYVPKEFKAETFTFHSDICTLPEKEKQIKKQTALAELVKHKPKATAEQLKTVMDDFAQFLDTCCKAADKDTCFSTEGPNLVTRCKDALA

B1: MSA24 (VHH)
VHH: QVQLQESGGGLVQPGNSLRLSCAASGFTFRNFGMSWVRQAPGKEPEWVSSISGSGSNTIYADSVKDRFTISRDNAKSTLYLQMNSLKPEDTAVYYCTIGGSLSRSSQGTQVTVSS
notes: Llama VHH selected on mouse serum albumin
Turning to B1, in the assay with mouse serum albumin, the Kd was found to be 28 nM, the koff was found to be 0.018 s⁻¹ and the kon was determined as 640000 M⁻¹ s⁻¹. Besides, in the assay with rabbit serum albumin, the binding result is “no binding”.
